Source: the nanobody polyreactivity screen of Harvey et al. (2022)

Experiment: yeast display, Sf9 membrane polyspecificity reagent, FACS + sequencing; frameworks hold sequencing errors
Outline: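 Genes from sorted yeast were amplified by colony PCR, read by MiSeq 2 × 250 sequencing and filtered on CDR length. These cells carried a synthetic nanobody library in Saccharomyces cerevisiae BJ5465 and were sorted by FACS into low and high (top ~1%) gates on anti-HA and streptavidin fluorescence. Polyreactivity is labelled according to the gate of origin.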

Row | Sequence | polyreactivity (PSR sort gate)
1 | QVQLVESGGGLVQAGGSLRLSCAASGRIFQGYVMGWYRQAPGKERELVAVISRRGGITNYADSVKGRFTISRDNAKNTVYLQMISLKPEDTAVYYCNDVTRVYNNGQYGYWGQGTQVTVSS | high polyreactivity
2 | QVQLVESGGVLVQARGSLRLSCAASGRTFRYYAMGWYRQAPGQEREMVATISWSGGRTSYADSVKGRFTISRDNAKNTVYLQMNSLKPEDTAVYDCAVESWLDADDSYPDSILVDYWGQGTQVTVSS | low polyreactivity
3 | QVQLVESGGGLVQAGGSLRLSCAASGRIFPYNAMGWSRQAPGQERELVARIDSGGRTNYADSVKGRFTISRDNAKNTVYLQMNSLKPEDTAVYYCARVFSLARSWYRYYYWGQGTQVTVSS | high polyreactivity
4 | QGQLVESGGGLVQAGGSLRLSCAASGSIFPVYAMGWYRQAPGKEREFVARIRFSGGRTYYADSVQGRFTISRDNAKNTVYLQMNSLKPEDTAVYYCAKAQYSGRYGYWGQGTQVTVSS | high polyreactivity
5 | QVQLVESGGGLVQAGGSLRLSCAASGNIFSRYAMGWYREPRGKERELVAAISSSGGTTYYADSVKGRFTISRDNAKNTVYLQMNSLKPEDTAVYYCNARRRQIYSEFGYWGQGTQVTVSS | high polyreactivity
6 | QDQLVESGAGLVQAAGSLRLSCAASGSTFDTYALGWYRQAPGKERELVAAISVSGTSTSYADSVKGRFTISRDNAKNTVYLQMNSLKPEDTAVYYCNATDFSRNPGYARPEYDYWGQGTHVTVSS | low polyreactivity
7 | QVQRVESGGGLVQAGGSLGLSCAASGFTFIKYAMGWYRQAPGKEREFVASITYRGGSTYYADSVKGRLTISRDNAKNTVYLQMNSLKPEDTAVYYCAAGGPGRRYRVDYWGQGTQVTVSS | high polyreactivity
8 | QGQLGESGGGLVQAGGSLRLSCAASGSNFSSNAMGWYRQAPWKERELVAAISSGGSTNYADSVKGRFTISRDNAKNTVYLQMNSLKPEDTAVYYCAADTSTGVYTPYAFEFDWGQGTQVTVSS | low polyreactivity
9 | QVQLVESGGGLVQAGGSLRLSCAASGGTFGLDAMGWYRQARGKERELVARISWSSGSTYYADSVKGRFTISRDNAKNTVYLQMNSLKPEDTAVYYCATDTYGAHAFFEFDYWGQGTQVTVSS | low polyreactivity
10 | QVQLVESGGGLVQERVSLRLSCAASGFIFLFNAMGWNRQAPGKERELVAAISDDGSTYYADSLKGRFTISRDNAKNTVYLQMTSLKTEDTAVYYCAAEYYYDRYTLDYWGQGTQVTVSS | high polyreactivity
11 | QVQLVESGGGLVQAGGSLRLSCAASGRTFVGNALGGYIQAPGKERELVAAISSGGSTYYADSVKGRFTISRDNAKITVYLQMNSLNPEDTAVYYCAGLYRRGAHGDYWGQGTQVTVSS | low polyreactivity
12 | QVQLVESGGGLVQAGGSLRLSCAASGSIFRFYAMGWYRQAPGKERELVATISKRGGTTYYADSVKGRFTISRDNAKNTVYLQMNSLKPEDTAVYYCAVRLYLEMDYWGQGTPVTVSS | high polyreactivity
13 | QVQLQESGGLVQAGGSLRLSCAASGSISGRNVMGWYRQAPGQEREFVASITDGSSTNYADSVKGRFTISRDNAKNTVYLQMNSLKPKDTAVYYCAAYAQRAKSFGYWGRGTQVTVSS | low polyreactivity
14 | QVQLEESGGGLVQAGGSLRLSCAASGIIFTTYDMGWYRQATGKERELVAAISSSTTNTYYADSVKGRFTISRDNAKNTVYLQMNSLKPEDTAVYYCAAPYKRNAGFDYWGQGTQVTVSS | low polyreactivity
15 | QVQLVESGGGLVQAGVSLRLSCAASGLTFSKYAMGWYREAPGNERDLVAAITRGDRTYYADSVKGRFTISRDNAKNTVYLHMNSLKPADTAVYYCAARQYYWGQGTQVTVSS | high polyreactivity
16 | QVHLVESGGGLVHAGGSLRLSCAASGSIFPYYAMGWYRQAPGKETELVAAISRSGGSTYYADSVKGRFTISRDYAKNTVYLQMNSLKPDDTAVYYCAADYARYVRKTRYGSWGKGTQVTVSS | high polyreactivity
17 | QVQLVESGGGLVQAGGSLRLSCAASGSIFRPYAMGWSRQAPGKERELVAAISWRSGRTYYADSVKGRFTISRDNAKNTVYLQMNSLKPEDTAVYYCAADLASYAYRYDYWGQGTQVTVSS | high polyreactivity
18 | QDQLVESGGGLVQAGGSLRLSCAASGLTFSLYAMGWYRQAPGKERELVAAISWTGGSTYYADSVKGRFTISRDTPKNTVYLQMNSLKPEDTAVYYCNARYTLFARYGYDYWGQGTQVTVSS | low polyreactivity
19 | QVQLVESGGGLVQAGGSLRLSCAASRSTFPWYAMGWYRQAPGKERELVARINSGGSTTYADSVKGRFTISRDNAKNTVYLQMNSLKPEDTAVYYCAADRWYSTYLASYYGYDYWGQGTQVTVSS | low polyreactivity
20 | QVQLVESGGGLVQAGGSLRLSCAASGRIFGINAMGWYRQAPGKERALVAAISRSGSRTYYADSVKGRFTISRDNAKNTVYLQMNSLKPEDTAVYYCAAQKRVYDSVRSTDRYDYWGQGTQVTVSS | high polyreactivity
21 | QVQLVESGGGLVQAGGSLRLSCAASGSTFLRFAMGWYRQAPGKERELVARISGGGTTYYADSVKGRFTISRDNAKNTVYLQMNSLKPEDTAVYYCNAFYFYVNQGRYEYGYWGQGTQVTVSS | high polyreactivity
22 | QVQLVESGGCLVQEGGSLRLSCAASGSTVTYYDMGWYRQAPGKERELVATIDSTTRTYYADSVKGRFTISRDNAKNTVYLQMNSLKPEDTAVYYCAADMTWGYFYYLFYRYDYWGKGTQVTVSS | low polyreactivity

Row | Sequence | polyreactivity (PSR sort gate)
23 | QFQLVESGGGLVQAGGSLRLSCAASGRTFWSNAMVWYRQAPGKERELVAAISGGARTNYADSVKGRFTISRDNAKNTVYLQMNSLKPEDTEVYFCAATPRYWQSRYDYWGKGTQVTVSS | high polyreactivity
24 | QVQLVESGGGLVQAGGSLRLSCAASGRIFYHNAMGWYRQAPGKERELVAAITWSGGSTYYADSVKGRFTISRDNAKNTVYLQMNSLKPEDTAVYYCAAYFYGRSYGYDYWGQGTQVTVSS | high polyreactivity
25 | QVQLVESGGGLVQAGGSLRLSCAASGLIFVGYAMGWYRQAPGKERELVAAITSGGSTYYADSVKGRFTISRDNAKNTVYLQMNSLKPEDTAVYYCAAQQGISNGTGVSATNPMDYWGHGTQVTVSS | low polyreactivity
26 | QVQLVESGGGLVQAGGSLRLSCAASGRIFYNYAMRWYRQAPGKERELVAAISGSGGSTYYADSVKGRFTISRDNAKNTVYLQMNSLKPEDTAVYYCSTSGPQYYSRNFDYWGQGTQVTVSS | low polyreactivity
27 | QVQLVESGGGLVQAGGSLRLSCAASGRIFVLYAMGWYRQAPGKERELVAAINWSGGSTFYADSVKGRFTISRDNAKNTVYLQMNSLKPEDTAVYYCAARRGYNDGYWGQGTQVTVSS | high polyreactivity
28 | QVQLVESGGGLVQAGGSLRLSCAASGFTFGYYAMGWYRQAPGKERELVATIDRGGGTSYADSVKGRFTISRDNAKNTVYLQMNSLKPEDTAVYYCNRAGYGAKARRYRSYWGQGTQVTVSS | high polyreactivity
29 | QVQLVESGGGLVQAGGSLRLSSAASGSTYDFKAMGWNRQAHGKERELFAAITGSGGSTDNADSVKGRFTISRDNAKNSVYLQMNSLKPEDTAVYYCNAGKTFDYRDGVGYDHWGQGTQVTVSS | low polyreactivity
30 | QVQIVESGGGLLQAGGSLRLSCAASGGTFPVYAMVWYRQAPGKERELVAAISYSGVTTYYADSVKGRFTISRDNAKNTVYLQINSLKPDDTAVFYCNADWRRWYIFSYDYWGQGTQVTVSS | low polyreactivity
31 | QVQLVESGGGLVQAGGSLRLSCAASGRICDSYTMGWYRQAPGKERELVAAISRGGGSTYYADSVKGRFTISRDNAQNTVYLQMNSLKPEDTAVYYCAASSYLNSRFKFDYWGQGTQVTVSS | low polyreactivity
32 | QVQLVESGGGLVQAGGSLRLSCAASGRIFRVYAMGWYRQAPGKERELVAAISSRGGRTYYADSVKGRFTISRDNAKNTVYLQMNSLKPEDTAVYYCAADGRSCSRTTSRYDYWGQGTQVTVSS | high polyreactivity
33 | QVQLVESGGGLVQAGGSLRKSCAASGRTFGYNTMGWYRQAPGKERELVAAITWSGGRTYYADSVKGRFTISRDNAKNTVYLQMNSLKPEDTAVYYCIAVIGREFDYWGQGTQVTVSS | high polyreactivity
34 | QVQLVESGGGLVQAGGSLRLSCAASGFIFYRNVMGWYRQAPGKERELVAAISGSGGRTYYADSVKGRFTISRDNAKNTVYLQMNSLKPEDTAVYYCAADASLEGDYWGQGTQVTVSS | high polyreactivity
35 | QVQLVESGGGLVQAGGSLRLSCAASGFTFKRYAMGWYRQAPGKESELVAVISSGGSTYYADSVKGRFTISRDNAKNTVYLQMNSLKPEDTAVYYCNAYIGGSSWHTALDYWGQGTQVTVSS | high polyreactivity
36 | QVQLVESGGGLVQAGGSLRLSCAASGFIFGKYAMGWYRQAPGKEREFVAAITGNGGSTYYADSVKGRFTISRDYAKNTVYLQMNSLKPVDSAVYYCYADRGYRRRSGMVYWGQGTQVSVSS | low polyreactivity
37 | QVQLGESGGGLVQAGGSVRLSCAASGRTFDFYALGWYRQAPGKERELVAAISSRGGSTYYADSVKGRFTISRDNAKNTVYLQMNSLKPEDTAVYYGAKDLGYRGRYNYWGQGTQVTVSS | low polyreactivity
38 | QDQLVESGGGLVQAGGSLRLSCADSGYTFTSNDMGWYRQAPGKERELVAAITWSGGTTYYADSVKGRFTISRDNAKNNVYLQMNSLKPDDTAVYYCAAESTLPIIDRDDYWGQGTQVTVSS | low polyreactivity
39 | QVQLVESGGGLVQAGGSLRLSCAASGSIFRSYAMGWYRQSPGKERELVAAITRSGGSTYYADSVKGRFTISRDNAKNTVDLQMNSLKPEDTAVYYCAAEYYSYTWGWGHGYWGQGTQVTVSS | high polyreactivity
40 | QVQLVESGGGLVQAGGSLRLSCAASGNTFPFNAMGWYRQAPGKERELVAAISRGGSTYYADSVKGRFTISRDNAKNTVYLQMISLKPEDTAVYYCAVSAGKRRLDYWGQGTQVTVSS | high polyreactivity
41 | QVQLVESGGGLVQAGGSLRLSCAASGRTFYANAMGWYRQAPGKERELVASITTSGGTYYADSVKGRFTISRDNAKNTVYLQMNSLKPEDTAVYYCAADVYRSIGYDYWGQGTQVTVSS | low polyreactivity
42 | QVQLVESGGGLVQAGGSLRLSCAASGSTFGPYAMGWYRQAPGKEREMVAAISKTGGRTYYADSVKGRFTISRDNAKNTVYLQMHSLKPEDTAVYYCAADVGTAQSTYGYWGQGTQVTVSS | high polyreactivity
43 | QVKLVESGGGLVQAGGRLRLSCAASGSIFLLYPMGWYRQAPGKERELVAAISSGGSTYADSVKGRFTISRDNAKNTVYLLLNSLKPADTAVYYGAKVGGWYDPYTYGYSEYGYWGNGTQVTVSS | low polyreactivity
